The source of these data is paper PMC9582199, “Molecular architecture of the glycogen- committed PP1/PTG holoenzyme” (Nature Communications, 2022).

By Kd is commonly meant the constant that tells how readily two partners part at equilibrium. As usually defined, the koff is a measure of how fast the partners let go of each other. For orientation: kon means a measure of how fast the partners come together.

In one test the target is GM CBM21. To be noted: cited from earlier work. From the text: The same two sugar-binding sites have been identified in the crystal structures of Rhizopus oryzae CBM21[13],[14]; site II is the primary binding site, while site I has been hypothesized to contribute to the binding of long-chain soluble polysaccharides and insoluble starch or to the relaxation and unwinding of helical amylose[15],[16].

Test [1] addresses PP1 (Homo sapiens) (UniProt P62136). Conditions: cited from earlier work.
Test [2] has the same target. To be noted: cited from earlier work. This is another data set of the same source.
The target in test [3] is T1, PP1 7-330 (Serine/threonine-protein phosphatase PP1-alpha catalytic subunit, residues 7-330) (human, UniProt P62136 7-330).
T1 construct: Serine/threonine-protein phosphatase PP1-alpha catalytic subunit, human, UniProt P62136, residues 7-330; source: E. coli BL21 (DE3) pGro7, purified (Ni-NTA, SEC)
T1 sequence (P62136 7-330): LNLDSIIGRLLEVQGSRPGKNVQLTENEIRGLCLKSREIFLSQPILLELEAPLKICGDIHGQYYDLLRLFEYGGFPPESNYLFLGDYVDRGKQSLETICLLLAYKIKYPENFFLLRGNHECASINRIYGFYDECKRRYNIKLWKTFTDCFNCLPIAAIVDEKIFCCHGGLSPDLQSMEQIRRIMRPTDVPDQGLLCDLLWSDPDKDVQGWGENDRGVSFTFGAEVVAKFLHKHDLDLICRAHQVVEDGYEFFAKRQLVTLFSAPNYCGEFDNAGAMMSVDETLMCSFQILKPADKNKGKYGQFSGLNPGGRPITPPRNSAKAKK
The test can be described thus: grating-coupled interferometry (GCI); PTG 70-264 immobilised by amine coupling on a 4PCH WAVE chip at 1000 pg/mm2; PP1 7-330 injected, 1:2 dilution series from 400 nM; 10 mM Hepes pH 7.2, 150 mM NaCl, 0.005% Tween 20; 25 °C; 30 µl/min; mass transport binding model. Conditions: both partners purified.

The target in another test is T2, PP1 7-330 (Homo sapiens, UniProt P62136).
T2 construct: reversibly capturing 6xHis-tagged PP1^7-330; host or cells: E. coli BL21 (DE3) pGro7
T2 sequence (P62136 7-330): as above
The test can be described thus: GCI binding of immobilized PTG constructs to PP1 as analyte. Conditions: GCI titrations, compared with PTG peptides 81–107 and 81–132. As for the experimental part: Grating-coupled interferometry (GCI) experiments were performed using the Creoptix WAVE system, a new generation instrument for the high-sensitivity kinetics and affinity analysis of label-free molecular interactions based on the waveguide interferometry technology. Waveguide interferometry exceeds the sensitivity levels of Surface Plasmon Resonance (SPR). […] GCI allows getting high resolution even at very low signal levels with low noise without artificial data averaging and reliable kinetics below 1 pg/mm^2. By the lower immobilization levels that are required, it avoids mass transport limitations. It covers the broadest kinetic range with the capability of analyzing of the ultra-fast transition times (i.e. 150 ms). It allows the reliable determination of off-rates of 5 s^–1 and even faster, enabling off-rate screening of weakly binding analytes. GCI can be applied to a wide range of pharmacological targets, with improved results on very low molecular weight compounds, to the dimensions of metal ions[56].
WAVE chips are composed of four channels or cells. Borate buffer (100 mM sodium borate pH 9.0, 1 M NaCl) was used for chip conditioning. To evaluate the kinetics of the PTG interaction with β-cyclodextrin and PP1, PTG^70-264 (20 µg/ml in buffer acetate pH 5.0) was immobilized on 4PCH WAVE chips (quasiplanar polycarboxylate surface; Creoptix) by standard amine coupling according to the manufacturer’s instructions at a density of 1800 pg/mm^2 and 1000 pg/mm^2 for β-cyclodextrin and PP1^7-330, respectively (Supplementary Figs. 8, 9). Regeneration-free injections of a 1:3 dilution series from 500 µM for β-cyclodextrin in running buffer (10 mM Hepes pH 7.2, 150 mM NaCl, 0.005% Tween 20) were performed at 25 °C, using a flow rate of 100 μl/min. Similarly, regeneration-free injections of a 1:2 dilution series from 400 nM for PP1^7-330 in the same running buffer were performed at 25 °C, using a flow rate of 30 μl/min. […]
Supplementary Figure 3: Quantitative binding kinetics by GCI. […]

In another test the target is T3, 6xHis-tagged PP1 7-330 (human, UniProt P62136 7-330).
T3 construct: Serine/threonine-protein phosphatase PP1-alpha catalytic subunit, human, UniProt P62136, residues 7-330; Captured by its His tag on 4PCP-NTA chips; a TEV site lies between tag and protein; source: E. coli BL21 (DE3) pGro7, purified (Ni-NTA, SEC); not shown: His6, N-terminal, kept
T3 sequence (P62136 7-330): as above
The test can be described thus: grating-coupled interferometry (GCI); 6xHis-tagged PP1 7-330 captured on 4PCP-NTA WAVE chips (3600 pg/mm2 for PTG 81-107, 1600 pg/mm2 for PTG 81-132); peptides injected, 1:2 dilution series from 300 nM; 10 mM Hepes pH 7.2, 150 mM NaCl, 0.005% Tween 20, 0.2 mg/ml BSA; 25 °C; 100 µl/min; mass transport binding model. To be noted: both partners purified.

The target of a further test is 6xHis-tagged PP1^7-330 (UniProt P62136 7-330, Mn2+ in active site (expressed and purified with MnCl2); N-terminal 6xHis tag used for capture, left out. Alpha isoform taken from the authors' PDB entries 7QFB/7QM2 and the residue numbering). The test can be described thus: grating-coupled interferometry (GCI); 6xHis-tagged PP1 7-330 reversibly captured on 4PCP-NTA WAVE chip (3600 or 1600 pg/mm^2); peptides injected, 1:2 dilution series from 300 nM; 25 °C; 10 mM Hepes pH 7.2, 150 mM NaCl, 0.005% Tween 20, 0.2 mg/ml BSA; mass transport binding model. To be noted: both partners purified.
Sequence of 6xHis-tagged PP1^7-330 (P62136 7-330): as above

Like-named read-outs stand apart in the source and are kept apart here.

Sequence of PP1 (Homo sapiens) (P62136 2-330): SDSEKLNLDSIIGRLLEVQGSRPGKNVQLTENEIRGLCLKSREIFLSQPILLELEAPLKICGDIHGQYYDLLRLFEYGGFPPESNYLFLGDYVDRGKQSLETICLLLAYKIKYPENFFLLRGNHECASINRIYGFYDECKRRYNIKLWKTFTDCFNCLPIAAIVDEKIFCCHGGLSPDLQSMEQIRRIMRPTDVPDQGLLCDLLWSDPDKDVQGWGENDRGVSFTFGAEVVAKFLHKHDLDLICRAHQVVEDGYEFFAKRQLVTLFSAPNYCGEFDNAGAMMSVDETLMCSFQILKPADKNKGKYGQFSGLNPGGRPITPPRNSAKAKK

Regarding `OC[C@H]1O[C@@H]2O[C@H]3[C@H](O)[C@@H](O)[C@@H](O[C@H]4[C@H](O)[C@@H](O)[C@@H](O[C@H]5[C@H](O)[C@@H](O)[C@@H](O[C@H]6[C@H](O)[C@@H](O)[C@@H](O[C@H]7[C@H](O)[C@@H](O)[C@@H](O[C@H]1[C@H](O)[C@H]2O)O[C@@H]7CO)O[C@@H]6CO)O[C@@H]5CO)O[C@@H]4CO)O[C@@H]3CO` [α-cyclodextrin], the dissociation constant (Kd) on GM CBM21 was 27.6 µM.
On to GM 64-105 (from UniProt Q00756), for which the Kd in the test with PP1 (Homo sapiens) [1] is 0.114 µM.
In the case of GM 64-237 (from UniProt Q00756), the dissociation constant Kd with PP1 (Homo sapiens) [2] was 0.021 µM.

B1: PTG 70-264 (Protein phosphatase 1 regulatory subunit 3C, residues 70-264) (domain or fragment, human, UniProt Q9UQK1 70-264, looked up)
chain: SQNDWKCSHNQAKKRVVFADSKGLSLTAIHVFSDLPEEPAWDLQFDLLDLNDISSALKHHEEKNLILDFPQPSTDYLSFRSHFQKNFVCLENCSLQERTVTGTVKVKNVSFEKKVQIRITFDSWKNYTDVDCVYMKNVYGGTDSDTFSFAIDLPPVIPTEQKIEFCISYHANGQVFWDNNDGQNYRIVHVQWKPD
notes: GST removed on the column with 3C protease; also called PPP1R3C; protein targeting to glycogen; source: E. coli, co-expressed with GroEL/ES (pGro7), purified (glutathione agarose, SEC); for the crystal co-expressed with PP1 7-300; not shown: GST, N-terminal, cleaved
In test [3], B1 returned a dissociation constant (Kd) of 0.087 µM, an off-rate (koff) of 0.0043 s⁻¹ and a kon of 50000 M⁻¹ s⁻¹.

B2: PTG70-264: recombinant human PTG residues 70–264, encompassing the PP1-binding region and the CBM21 (protein)
chain: SQNDWKCSHNQAKKRVVFADSKGLSLTAIHVFSDLPEEPAWDLQFDLLDLNDISSALKHHEEKNLILDFPQPSTDYLSFRSHFQKNFVCLENCSLQERTVTGTVKVKNVSFEKKVQIRITFDSWKNYTDVDCVYMKNVYGGTDSDTFSFAIDLPPVIPTEQKIEFCISYHANGQVFWDNNDGQNYRIVHVQWKPD
modifications: left off: GST, N-terminal, cleaved
B2: in the test with PP1 7-330, the “binding to PP1 (in words)” value is “did not bind PP1 any better”.

B3: PTG peptide 81-132 (peptide, UniProt Q9UQK1 81-132, looked up)
peptide: AKKRVVFADSKGLSLTAIHVFSDLPEEPAWDLQFDLLDLNDISSALKHHEEK
notes: also called peptide 2; source: synthetic peptide, bought: ProteoGenix SAS
In the test with 6xHis-tagged PP1 7-330, B3 registered a Kd of 0.0077 µM, a koff of 0.0026 s⁻¹ and a kon of 357000 M⁻¹ s⁻¹.

B4: CBM21 aa. 132–264: recombinant PTG carbohydrate-binding module 21, residues 132–264 (protein)
chain: KNLILDFPQPSTDYLSFRSHFQKNFVCLENCSLQERTVTGTVKVKNVSFEKKVQIRITFDSWKNYTDVDCVYMKNVYGGTDSDTFSFAIDLPPVIPTEQKIEFCISYHANGQVFWDNNDGQNYRIVHVQWKPD
modifications: left off: His6, N-terminal, cleaved
Regarding B4, the “binding to PP1 (in words)” value with PP1 7-330 was “no interaction was detected”; with PP1 7-330 (listed as isolated CBM21), “undetectable binding”.

B5: PTG peptide 81-107 (peptide, UniProt Q9UQK1 81-107, looked up)
peptide: AKKRVVFADSKGLSLTAIHVFSDLPEE
notes: also called peptide 1; source: synthetic peptide, bought: ProteoGenix SAS
In the test with 6xHis-tagged PP1 7-330, B5 came in with a Kd of 0.0141 µM, a koff of 0.00295 s⁻¹ and an on-rate constant (kon) of 208000 M⁻¹ s⁻¹.

B6: PTG peptide 81-107 (peptide, UniProt Q9UQK1 81-107, looked up)
peptide: AKKRVVFADSKGLSLTAIHVFSDLPEE
notes: also called PTG N-terminal peptide; source: synthetic peptide, bought: ProteoGenix SAS
On to B6, for which, in the test with 6xHis-tagged PP1^7-330, the Kd came out at 0.014 µM.
